Data published in PMC5940873, “NADH/NADPH bi-cofactor-utilizing and thermoactive ketol-acid reductoisomerase from Sulfolobus acidocaldarius” (Scientific Reports, 2018).

Legend:
[1] = target: the molecule itself; assay: SEC; gel filtration on HiLoad 16/600 Superdex 200 pg, in the presence of 2 mM Mg2+
[2] = target: the molecule itself; assay: crystal structure; X-ray, 1.75 Å, space group P212121, one dimer in the asymmetric unit; SeMet crystals from 0.2 M Li2SO4 and 20% PEG 3350, 25 °C

B1: Ketol-acid reductoisomerase from Sulfolobus acidocaldarius (Sac-KARI), His-tagged recombinant (enzyme)
chain: MAKIYTDKDVSLDVIKEKRVAVLGYGSQGRAWALNLRDSGIKVSVGLEREGNSWKQAENDGFKPLRTEEAVRNSDIIIFLLPDMIQRTVYLERVKPYLKEGMDLVFAHGFNIHYRLIEPPSNVDVYMIAPKAPGPIVREYFAKGGGVPALVATYQDHSGKALQKALAVAKAIGATRAGVIETTFKEETETDLFGEQVDLVGGVMQLMRYAFQTLVEAGYQPEVAYFETINEMKLIVDLVYEKGFSGMLTAVSDTAKYGGMTVGKMVIDESVKERMKKALDNIRSGKFAEKWVEEYGKGANTIKEGMKEVDNSTEEKVGRSLRDIILRGKPKS
notes: pET-21a cloned through NdeI/XhoI with the His-tag coding region kept would give a C-terminal His6 tag (surmised); No tag cleavage is described; also called ilvc1559; source: E. coli BL21 (DE3), purified (heating at 65 °C for 30 min, Ni-NTA, gel filtration)
- stoichiometry N [1]: 2

B2: SeMet-substituted Sac-KARI (ketol-acid reductoisomerase from Sulfolobus acidocaldarius) (enzyme)
chain: B1 chain
modifications: selenomethionine in place of methionine (SeMet-substituted)
notes: Ketol-acid reductoisomerase (class I KARI) of Sulfolobus acidocaldarius, gene ilvc1559, same pET21a-ilvc construct as m1, expressed with selenomethionine; also called SeMet-containing Sac-KARI; source: Overnight Express Autoinduction System 2 (Novagen) with L-methionine and SeMet; purified as the native protein (heating, Ni-NTA, gel filtration)
- binding result [2]: binds
